Here are results for 1 molecule from US20120324602A1.

Holding throughout (assay): TAP-MS, N-terminal GS tag
Assay [1] has as its target TCP-1 (Arabidopsis thaliana T-complex protein 1 alpha subunit) (Arabidopsis thaliana).
Assay [2] deals with T1, actin-related protein 4 (ARP4) (Arabidopsis thaliana).
T1 sequence (Q84M92 1-441, looked up): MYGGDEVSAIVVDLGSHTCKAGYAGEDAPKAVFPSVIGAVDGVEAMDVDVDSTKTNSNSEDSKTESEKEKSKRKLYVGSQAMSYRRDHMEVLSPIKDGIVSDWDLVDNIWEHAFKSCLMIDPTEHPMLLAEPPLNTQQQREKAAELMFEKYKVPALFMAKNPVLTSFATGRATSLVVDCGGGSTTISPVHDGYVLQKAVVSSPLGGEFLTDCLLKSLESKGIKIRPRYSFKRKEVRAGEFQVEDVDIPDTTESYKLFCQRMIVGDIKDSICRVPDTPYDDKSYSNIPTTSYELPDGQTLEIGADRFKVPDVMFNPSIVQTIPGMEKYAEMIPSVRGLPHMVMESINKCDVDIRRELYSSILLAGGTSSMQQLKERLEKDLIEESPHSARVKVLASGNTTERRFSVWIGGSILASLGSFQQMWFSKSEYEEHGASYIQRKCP

Assay [3] deals with chaperonin (AT3G02530) (Arabidopsis thaliana).
Assay [4] addresses chaperonin (AT5G26360) (Arabidopsis thaliana).
The target of assay [5] is chaperonin, similar to At3g03960 (AT3G18190) (Arabidopsis thaliana).
In assay [6] the target is chaperonin, similar to At3g18190 (AT3G03960) (Arabidopsis thaliana).
For assay [7], the target named is protein coding (AT5G14240) (Arabidopsis thaliana).
The target of assay [8] is unknown, similar to At5g55210 (AT4G22320) (Arabidopsis thaliana).

TCP-1 (Arabidopsis thaliana T-complex protein 1 alpha subunit) (Arabidopsis thaliana), sequence (P28769 2-545, one chain of several): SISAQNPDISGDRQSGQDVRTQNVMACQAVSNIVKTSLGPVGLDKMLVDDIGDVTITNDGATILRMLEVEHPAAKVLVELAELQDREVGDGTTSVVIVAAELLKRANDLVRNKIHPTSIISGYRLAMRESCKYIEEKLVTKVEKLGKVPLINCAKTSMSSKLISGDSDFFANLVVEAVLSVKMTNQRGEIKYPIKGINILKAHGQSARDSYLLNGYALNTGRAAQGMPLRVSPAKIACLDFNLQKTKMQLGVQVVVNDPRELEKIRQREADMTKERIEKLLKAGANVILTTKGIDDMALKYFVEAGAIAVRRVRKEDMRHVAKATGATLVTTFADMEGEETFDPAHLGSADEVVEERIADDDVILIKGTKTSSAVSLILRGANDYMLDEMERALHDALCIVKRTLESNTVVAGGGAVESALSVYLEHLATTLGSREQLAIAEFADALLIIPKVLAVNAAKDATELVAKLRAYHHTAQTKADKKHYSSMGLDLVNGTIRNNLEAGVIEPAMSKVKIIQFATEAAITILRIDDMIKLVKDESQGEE

B1: GS-ARP7 (protein, UniProt Q8L4Y5 1-363, looked up)
Actin-related protein 7: MEALVVDAGSKFLKAGAAIPDQSPAMIIPSQMKRMVDDGSSSADNPTTVFEDVTLDPIERGLIRDWDAMEDLLRYVVYTGLGWEEGNEGNILFTDPLCTPKAIREQLVQLMFETFNVSGFYASEQAVLSLYAVGRISGCTVDIGHGKIDIAPVLEGAVQHIASKRFELGGTELTKLFAQELGKTNPSMNLSMSDVEKLKEQYANCAEDEIAYKKTQNCEIEQHTLPDGQVISIGRERYSVGEALFQPSILGLEEHGIVEQLVRIISTVSSENHRQLLENTVLCGGTTSMTGFESRFQKEANLCSSAIRPTLVKPPEYMPENLGMYSAWVGGAILAKVVFPQNQHVTKADYDETGPSVVHRKCF
modifications: N-terminal GS tag
Turning to B1, the N-GS (times co-purified) in assay [1] was 2; in assay [2], 1; in assay [3], 2; in assay [4], 2; in assay [5], 2; in assay [6], 2. For the same molecule, the N-GS (times co-purified) in assay [7] and in assay [8] was 2 in each case.
